Consider three molecules from patent US20120301493A1 (UNIVERSIDADE DE SANTIAGO DE COMPOSTELA, published 2012).

First the molecules themselves.
B1: muNS (1-380)-HA (other)
chain: MASTKWGDKPMSVSMSHDGSSIRSAASQFLSGPLFHSTPIPPQRKTVLLKFMIGDELVTVQGALAPFDEYWYDNQPLLAQAVEMLASADRLRQFEHYEKFLLKKGHQITEIMNRLRLFFTDVLKVKMEADALPALAQYLMVGTLEAVSTADSPDACVPVTSKILAKQQTIAKSPGRLDEEEYNVIRSRFLTHEVFDLTSDLPGVQPFMDMYYATVPRADSTGWCVYRRKGLLIHAPDEQFSDLTIFSTRLTASRELQLVAGDVAVACFDLMDVSDIAPSHHASVQEERTLGTSRYSNVTANDHPLVFFSPSALRWAIDHACTDSLVSTRNIRVCVGIDPLVTRWTRDGVQEAAILMDDKLPSAGRARMALRTLLLARRSP
B2: muNS (1-448)-HA (other)
chain: MASTKWGDKPMSVSMSHDGSSIRSAASQFLSGPLFHSTPIPPQRKTVLLKFMIGDELVTVQGALAPFDEYWYDNQPLLAQAVEMLASADRLRQFEHYEKFLLKKGHQITEIMNRLRLFFTDVLKVKMEADALPALAQYLMVGTLEAVSTADSPDACVPVTSKILAKQQTIAKSPGRLDEEEYNVIRSRFLTHEVFDLTSDLPGVQPFMDMYYATVPRADSTGWCVYRRKGLLIHAPDEQFSDLTIFSTRLTASRELQLVAGDVAVACFDLMDVSDIAPSHHASVQEERTLGTSRYSNVTANDHPLVFFSPSALRWAIDHACTDSLVSTRNIRVCVGIDPLVTRWTRDGVQEAAILMDDKLPSAGRARMALRTLLLARRSPMTSFLLGALKQSGGQLMEHYRCDAANRYGSPTVPVSHSPPCSKCPELKEQITKLSSSPLPKIDSNVGP
notes: also called N-terminus domain (muNS(1-448)); N-terminus region
B3: muNS (1-154)-HA (other)
chain: MASTKWGDKPMSVSMSHDGSSIRSAASQFLSGPLFHSTPIPPQRKTVLLKFMIGDELVTVQGALAPFDEYWYDNQPLLAQAVEMLASADRLRQFEHYEKFLLKKGHQITEIMNRLRLFFTDVLKVKMEADALPALAQYLMVGTLEAVSTADSPD

For this assay, the target named is muNS-Mi, region 448-635 of avian reovirus S1133 muNS protein (avian Orthoreovirus (avian reovirus …)). The experiment in a line: co-expression with muNS-Mi in CEF cells, anti-HA immunofluorescence.
B1: the binding result is “no binding”.

Turning to B2, the binding result was “no binding”.

With B3, the binding result is “no binding”.
